The text below walks through data of patent US20260184782A1 (TWIST BIOSCIENCE, published 2026).

Changes are numbered by the printed parent chain.

This assay has as its target T1, human TIGIT-Fc (human, UniProt Q495A1 22-141, limits assumed).
T1 construct: not shown: Fc; not described
T1 sequence (looked up): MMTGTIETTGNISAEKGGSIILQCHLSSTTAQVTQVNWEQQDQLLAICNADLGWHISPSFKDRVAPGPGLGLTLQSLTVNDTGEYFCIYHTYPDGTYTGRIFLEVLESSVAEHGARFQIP
The experiment in a line: CD155 competition ELISA, single point. Also: test concentration or dose not given here. How it is done: TIGIT/CD155 inhibition of VHH-Fcs were assessed using an ELISA assay (Table 10B). Briefly, human TIGIT-Fc was coated on a plate & then incubated with VHH-Fcs and human CD155-biotin. Bound CD155-biotin was detected using a streptavidin-HRP conjugate visualized with TMB. Strong inhibitors from the single point screen were titrated to determine EC50 (Table 10C).
Background: An ELISA detects its analyte on a solid surface through an enzyme-linked reagent.

B1: TIGIT-SC137 (Fc fusion)
VHH: EVQLVESGGGLVQPGGSLRLSCAASGFTLENNMMGWFRQAPGKEREFVAAISRSGTLKAYADSVKGRFTISADNSKNTAYLQMNSLKPEDTAVYYCSLVSGPRWYWGQGTLVTVSS
notes: VHH-Fc
On to B1, for which the “OD (450 nm)” value was found to be 0.306 OD.

B2: TIGIT-SC104 (Fc fusion)
VHH: EVQLVESGGGLVQPGGSLRLSCAASGFTFSTYTMGWFRQAPGKEREFVAAISPSGNTYYADSVKGRFTISADNSKNTAYLQMNSLKPEDTAVYYCARWGGITFGGVYPLDYWGQGTLVTVSS
notes: VHH-Fc
As to B2, the “OD (450 nm)” value is 0.701 OD.

B3: TIGIT-SC86 (Fc fusion)
VHH: EVQLVESGGGLVQPGGSLRLSCAASGIIASDSAMGWFRQAPGKEREFVAAIRWSGKETWYADSVKGRFTISADNSKNTAYLQMNSLKPEDTAVYYCARWGGVTFGGVYPLEYWGQGTLVTVSS
notes: VHH-Fc
In the case of B3, the “OD (450 nm)” value was 0.716 OD.

B4: TIGIT-SC88 (Fc fusion)
VHH: EVQLVESGGGLVQPGGSLRLSCAASGFTFSSDWMGWFRQAPGKEREFVAAINRSGHSTSYADSVKGRFTISADNSKNTAYLQMNSLKPEDTAVYYCARWGGVTFGGVYPLEYWGQGTLVTVSS
notes: VHH-Fc
B4: the “OD (450 nm)” value amounted to 0.484 OD.

B5: TIGIT-SC103 (Fc fusion)
VHH: EVQLVESGGGLVQPGGSLRLSCAASGTITSAVFMGWFRQAPGKEREFVAAISWSGGDTNYADSVKGRFTISADNSKNTAYLQMNSLKPEDTAVYYCARWGGITFGGVYPLDYWGQGTLVTVSS
notes: VHH-Fc
As for B5, the “OD (450 nm)” value was 0.666 OD.

B6: TIGIT-SC136 (Fc fusion)
VHH: EVQLVESGGGLVQPGGSLRLSCAASGFTLENNMMGWFRQAPGKEREFVAAISRSGTLKAYADSVKGRFTISADNSKNTAYLQMNSLKPEDTAVYYCARGGELTTFYFGYWGQGTLVTVSS
notes: VHH-Fc
In the case of B6, the “OD (450 nm)” value worked out at 0.571 OD.

B7: TIGIT-SC150 (Fc fusion)
VHH: EVQLVESGGGLVQPGGSLRLSCAASGFTLENNMMGWFRQAPGKEREFVAAISRSGTLKAYADSVKGRFTISADNSKNTAYLQVNSLKPEDTAVYYCVRVRGYSGYDCDYWGQGTLVTVSS
notes: VHH-Fc
For the molecule B7, the “OD (450 nm)” value came out at 0.445 OD.

B8: TIGIT-SC79 (Fc fusion)
VHH: EVQLVESGGGLVQPGGSLRLSCAASGSILSINTMGWFRQAPGKEREFVAAITSAGGTTYYADSVKGRFTISADNSKNTAYLQMNSLKPEDTAVYYCARWHYDILTGYYWLDSWGQGTLVTVSS
notes: VHH-Fc
B8: the “OD (450 nm)” value was determined as 0.8 OD.

B9: TIGIT-SC80 (Fc fusion)
VHH: B8 VHH with S27N, L29P, S30P, T33A, T52N, S53Y, A54S, T57S
notes: VHH-Fc
Consider B9, for which the “OD (450 nm)” value worked out at 0.508 OD.

B10: TIGIT-SC99 (Fc fusion)
VHH: EVQLVESGGGLVQPGGSLRLSCAASGSIFSMNTMGWFRQAPGKEREFVGAINWSGGSTIYADSVKGRFTISADNSKNTAYLQMNSLKPEDTAVYYCARWDYDILTNYYWLEYWGQGTLVTVSS
notes: VHH-Fc
Turning to B10, the “OD (450 nm)” value came out at 0.635 OD.

B11: TIGIT-SC94 (Fc fusion)
VHH: EVQLVESGGGLVQPGGSLRLSCAASGSSFSAYAMGWFRQAPGKEREFVSLINWSSGKTIYADSVKGRFTISADNSKNTAYLQMNSLKPEDTAVYYCARVRIFNHVHRPSYYFDYWGQGTLVTVSS
notes: VHH-Fc
As to B11, the “OD (450 nm)” value was found to be 0.513 OD.

B12: TIGIT-SC102 (Fc fusion)
VHH: EVQLVESGGGLVQPGGSLRLSCAASGSTFSKHHAMGWFRQAPGKEREFVAAIRWSGGNTYYADSVKGRFTISADNSKNTAYLQMNSLKPEDTAVYYCARWYSSSGDYYYMDVWGQGTLVTVSS
notes: VHH-Fc
As for B12, the “OD (450 nm)” value amounted to 0.311 OD.

B13: TIGIT-SC89 (Fc fusion)
VHH: EVQLVESGGGLVQPGGSLRLSCAASGSMSSINAMGWFRQAPGKEREFVAAINYEGDRTYYADSVKGRFTISADNSKNTAYLQMNSLKPEDTAVYYCARWTRGLVSGTYYYYMDVWGQGTLVTVSS
notes: VHH-Fc
With B13, the “OD (450 nm)” value was 0.384 OD.

B14: TIGIT-SC90 (Fc fusion)
VHH: EVQLVESGGGLVQPGGSLRLSCAASGDTFSSKAMGWFRQAPGKEREFVAAIRWSVSSTYYADSVKGRFTISADNSKNTAYLQMNSLKPEDTAVYYCARWTRGLVSGTYYYYMDVWGQGTLVTVSS
notes: VHH-Fc
Consider B14, for which the “OD (450 nm)” value was determined as 0.519 OD.

B15: TIGIT-SC81 (Fc fusion)
VHH: EVQLVESGGGLVQPGGSLRLSCAASGRSFKDDAMGWFRQAPGKEREFVAAISWSGDSTHYADSVKGRFTISADNSKNTAYLQMNSLKPEDTAVYYCARWVWASGTYWIDYWGQGTLVTVSS
notes: VHH-Fc
B15: the “OD (450 nm)” value is 0.553 OD.

B16: TIGIT-SC73 (Fc fusion)
VHH: EVQLVESGGGLVQPGGSLRLSCAASGSSFSLADYAMGWFRQAPGKEREFVAAISYNVGTTYYADSVKGRFTISADNSKNTAYLQMNSLKPEDTAVYYCARWSAKRHSDTMTYYMDVWGQGTLVTVSS
notes: VHH-Fc
For B16, the “OD (450 nm)” value amounted to 0.405 OD.

B17: TIGIT-SC133 (Fc fusion)
VHH: EVQLVESGGGLVQPGGSLRLSCAASGFTLENNMMGWFRQAPGKEREFVAAISASGTLRAYADSVKGRFTISADNSKNTAYLQMNSLKPEDTAVYYCACGRVSGAFIYFDYWGQGTLVTVSS
notes: VHH-Fc
Consider B17, for which the “OD (450 nm)” value was found to be 0.284 OD.

B18: TIGIT-SC96 (Fc fusion)
VHH: EVQLVESGGGLVQPGGSLRLSCAASGMTTIGPMGWFRQAPGKEREFVAAINWSGSSTVYADSVKGRFTISADNSKNTAYLQMNSLKPEDTAVYYCVTYSAYDFRNAWGQGTLVTVSS
notes: VHH-Fc
Take B18: the “OD (450 nm)” value was 0.677 OD.

B19: TIGIT-SC141 (Fc fusion)
VHH: EVQLVESGGGLVQPGGSLRLSCAASGNAFSSSVMGWFRQAPGKEREFVAGIWRSGSLKAYADSVKGRFTISADNSKNTAYLQMNSLRPEDTAVYYCARAYVGMTTVTFDHWGQGTLVTVSS
notes: VHH-Fc
Consider B19, for which the “OD (450 nm)” value came to 0.633 OD.

B20: TIGIT-SC140 (Fc fusion)
VHH: EVQLVESGGGLVQPGGSLRLSCAASGNTFSGGFTFDRSWMGWFRQAPGKEREWVASVLRGGYTWYADSVKGRFTISADNSKNTAYLQMNSLKPEDTAVYYCAGDRYYDFWSGPNSGDYWGQGTLVTVSS
notes: VHH-Fc
Regarding B20, the “OD (450 nm)” value is 0.708 OD.

B21: TIGIT-SC134 (Fc fusion)
VHH: EVQLVESGGGLVQPGGSLRLSCAASGFTLENNMMGWFRQAPGKEREFVAAISASGTLRAYADSVKGRFTISADNSKNTAYLQMNSLKPEDTAVYYCARWYRVNNWSPGYYYYMDVWGQGTLVTVSS
notes: VHH-Fc
In the case of B21, the “OD (450 nm)” value amounted to 0.845 OD.

B22: TIGIT-SC100 (Fc fusion)
VHH: EVQLVESGGGLVQPGGSLRLSCAASGRTLSDRAMGWFRQAPGKEREFVAAITDNGGSTYYADSVKGRFTISADNSKNTAYLQMNSLKPEDTAVYYCARWYSSSGDYYYMDVWGQGTLVTVSS
notes: VHH-Fc
As to B22, the “OD (450 nm)” value was 0.692 OD.

B23: TIGIT-SC101 (Fc fusion)
VHH: B22 VHH with L29F, D31S, R32Y, T52D, D53W, N54S, G55D
notes: VHH-Fc
For the molecule B23, the “OD (450 nm)” value is 0.394 OD.

B24: TIGIT-SC85 (Fc fusion)
VHH: EVQLVESGGGLVQPGGSLRLSCAASGRTFSPYTMGWFRQAPGKEREWVAGISQSGGSTAYADSVKGRFTISADNSKNTAYLQMNSLKPEDTAVYYCARDLNAMGDAYDIWGQGTLVTVSS
notes: VHH-Fc
Take B24: the “OD (450 nm)” value turned out to be 0.768 OD.

B25: TIGIT-SC76 (Fc fusion)
VHH: EVQLVESGGGLVQPGGSLRLSCAASGFTFSDYAMGWFRQAPGKERELVARIGHDGSTDYADSVKGRFTISADNSKNTAYLQMNSLKPEDTAVYYCLGGLDPWGQGTLVTVSS
notes: VHH-Fc
Turning to B25, the “OD (450 nm)” value is 0.673 OD.

B26: TIGIT-SC139 (Fc fusion)
VHH: EVQLVESGGGLVQPGGSLRLSCAASGFTLENNMMGWFRQAPGKEREFVAAISRSGTLKAYADSVKGRFTISADNSKNTAYLRMNSLKPEDTAVYYCAGLTSGGAFSYYWGQGTLVTVSS
notes: VHH-Fc
Regarding B26, the “OD (450 nm)” value stood at 0.51 OD.

B27: TIGIT-SC74 (Fc fusion)
VHH: EVQLVESGGGLVQPGGSLRLSCAASGRTFANNAMGWFRQAPGKEREFVAAINWSGGNTYYADSVKGRFTISADNSKNTAYLQMNSLKPEDTAVYYCAKWSYYGSGLYGMDVWGQGTLVTVSS
notes: VHH-Fc
Turning to B27, the “OD (450 nm)” value amounted to 0.649 OD.

B28: TIGIT-SC75 (Fc fusion)
VHH: B27 VHH with R27F, T28I, F29G, A30N, N31Y, N32H, N52R, G55D, N57S, T58S
notes: VHH-Fc
Take B28: the “OD (450 nm)” value amounted to 0.652 OD.

B29: TIGIT-SC87 (Fc fusion)
VHH: EVQLVESGGGLVQPGGSLRLSCAASGSIDTINTMGWFRQAPGKEREFVAAITPSSRTTYYVDSVKGRFTISADNSKNTAYLQMNSLKPEDTAVYYCARWGGVTFGGVYPLEYWGQGTLVTVSS
notes: VHH-Fc
As to B29, the “OD (450 nm)” value was determined as 0.438 OD.

B30: TIGIT-SC105 (Fc fusion)
VHH: EVQLVESGGGLVQPGGSLRLSCAASGFAFSRYGMGWFRQAPGKERELVATIGWSGSSTFYADSVKGRFTISADNSKNTAYLQMNSLKPEDTAVYYCARDGGPYYYGLDVWGQGTLVTVSS
notes: VHH-Fc
Take B30: the “OD (450 nm)” value stood at 0.959 OD.

B31: TIGIT-SC92 (Fc fusion)
VHH: EVQLVESGGGLVQPGGSLRLSCAASGSTIENYAMGWFRQAPGKEREFVAAIDWSGGSTYYADSVKGRFTISADNSKNTAYLQMNSLKPEDTAVYYCARWRSIWSGYDDYYYMDVWGQGTLVTVSS
notes: VHH-Fc
For B31, the “OD (450 nm)” value came to 0.593 OD.

B32: TIGIT-SC91 (Fc fusion)
VHH: B31 VHH with S27F, I29F, E30S, D52N, S54N, G55S, G56R
notes: VHH-Fc
Take B32: the “OD (450 nm)” value came to 0.484 OD.

B33: TIGIT-SC93 (Fc fusion)
VHH: B31 VHH with G26S, S27R, I29V, E30S, N31S, Y32H, D52S, G56V, S57T
notes: VHH-Fc
As to B33, the “OD (450 nm)” value was 0.307 OD.
